Experimental data: patent US20160039936A1, “FIBROBLAST GROWTH FACTOR RECEPTOR INHIBITION FOR THE TREATMENT OF DISEASE” (UNIVERSITY OF MIAMI, priority 2011, published 2016)

B1: FGF23: recombinant mouse FGF23, 6His-tagged Tyr25-Val251 (Arg179Gln) (R&D Systems) (protein)
chain: YPDTSPLLGSNWGSLTHLYTATARTSYHLQIHRDGHVDGTPHQTIYSALMITSEDAGSVVITGAMTRRFLCMDLHGNIFGSLHFSPENCKFRQWTLENGYDVYLSQKHHYLVSLGRAKRIFQPGTNPPPFSQFLARRNEVPLLHFYTVRPRRHTQSAEDPPERDPLNVLKPRPRATPVPVSCSRELPSAEEGGPAASDPLGVLRRGRGDARGGAGGADRCRPFPRFV
modifications: left off: small tags and cut ends
B2: FGF2: recombinant mouse FGF2 (Ala11-Ser154) (R&D Systems) (protein)
chain: ALPEDGGAAFPPGHFKDPKRLYCKNGGFFLRIHPDGRVDGVREKSDPHVKLQLQAEERGVVSIKGVCANRYLAMKEDGRLLASKCVTEECFFFERLESNNYNTYRSRKYSSWYVALKRTGQYKLGSKTGPGQKAILFLPMSAKS

How the values were obtained:
NFAT = NFAT gene reporter assay in NRVM; assay type: cell-based, rat; settings: FGF 25 ng/ml, 2 hours
Description: The assay was done as described previously (Kuhn et al., 2009). Briefly, 24 hours after plating, NRVM were serum-starved and infected by an adenovirus (AdNFAT-luc, 20 moi) carrying a firefly luciferase construct under the transcriptional control of three consensus NFAT binding sites (Biomyx). To enable normalization of the ensuing measurements, NRVMs were also infected with an adenovirus (AdRenilla, 10 moi) encoding a renilla luciferase under the transcriptional control of a CMV promoter. Cells were incubated in FGF23 or FGF2 at 25 ng/ml for 2 hours after pre-treatment with or without cyclosporine A (1 μg/ml; Sigma-Aldrich), AZD4547 (5 nM; ChemieTek), or anti-FGFR4/U3-11 (U3Pharma; 10 μg/ml) for 60 minutes. Chemiluminescence was detected and quantified in 4×10^5 cells using the Dual-Luciferase Reporter Assay System (Promega) according to the manufacturer's instructions, and Infinite M200 PRO reader (Tecan). Firefly luciferase activities were then normalized to renilla luciferase activities. All experiments were conducted in triplicates and repeated three times.

HEK293 cells = assay: FGF-FGFR-dependent signaling in HEK293 cells (Western blot, immunoprecipitation); assay type: cell-based; settings: for phosphorylated PLCγ levels / phosphorylation of FRS2γ (FGF2: FRS2γ and ERK1/2): HEK293, untransfected, 30 minutes
Description: HEK293 cells were grown in 6-well plates or 10 cm-culture dishes and transiently transfected with FuGene 6 (Roche) according to the manufacturer's protocol. After 36 hours, cells were serum-starved for 12-16 hours followed by treatment with FGF23 or FGF2 at 25 ng/ml for 15 or 30 minutes.
HEK293 cells, NRVM or NMVM were treated with growth factors for 30 minutes to analyze activation of signal transduction mediators, or for 48 hours to analyze expression levels of hypertrophic marker proteins. Cells were scraped from 6-well plates using 500 μl CHAPS extraction buffer (20 mM Tris-HCl pH7.5, 500 mM NaCl, 0.5% CHAPS, protease inhibitor cocktail (Roche), protein phosphatase inhibitors [Sigma-Aldrich]) and incubated on ice for 30 minutes. The cell lysate was centrifuged at 14,000 rpm and 4° C. for 30 minutes, and the supernatant boiled in sample buffer and analyzed by SDS-PAGE and immunoblotting. For protein extraction from mouse hearts, tissue was isolated, minced and homogenized in RIPA extraction buffer (50 mM Tris-HCl pH 7.5, 200 mM NaCl, 1% Triton X-100, 0.25% DOC, 1 mM EDTA, 1 mM EGTA, protease and phosphatase inhibitors) at 1:10 (w:v), and protein lysates were prepared as described above.
Antibodies to β-MHC (NOQ7.5.4D; Sigma-Aldrich; 1:1,000), RCAN1 (rabbit polyclonal, provided by Timothy McKinsey, University of Colorado, Denver, Colo. (Harrison et al., 2004); 1:1,000), FGFR4 (C-16; Santa Cruz; 1:1,000), total and phospho-ERK1/2 (Cell Signaling; 1:1,000), total and phospho-FRS2α (Santa Cruz 1:1,000; Cell Signaling; 1:1,000), total and phospho-PLCγ (Cell Signaling; 1:1,000), FLAG (M5, Sigma-Aldrich; 1:10,000), V5 (Sigma-Aldrich; 1:10,000) and GAPDH (Abcam; 1:10,000) were used as primary antibodies in 5% milk in TBST (RCAN1, FGFR4, FLAG, V5), 5% BSA in TBST (phospho-FRS2α) or 1.5% FBS in TBS (β-MHC, total and phospho-ERK1/2, total FRS2α, total and phospho-PLCγ, GAPDH) for 1-2 hours. Horseradish peroxidase-conjugated goat-anti-mouse and goat-anti-rabbit (Promega; 1:10,000) were secondary antibodies.
HEK293 cells in 10 cm-dishes were treated with growth factors for 30 minutes, cells were scraped using 1 ml IP buffer (50 mM Tris-HCl pH7.5, 150 mM NaCl, 5 mM MgCl2, 2 mM EGTA, 1% Triton X-100, 5% Glycerol, protease and phosphatase inhibitors), and protein lysates were prepared as described above. V5-tagged proteins were immunoprecipitated using 25 μl of anti-V5 agarose beads (Sigma-Aldrich). After 5 washes in IP buffer, proteins were eluted in 100 μl of sample buffer and analyzed by SDS-PAGE and immunoblotting. For endogenous immunoprecipitation studies from NRVM, cells in 10cm-dishes were treated with growth factors for 30 minutes. Some cells were pre-treated with FGFR4 blocking antibody at 10 μg/ml for 1 hour (human monoclonal, U3-11; U3Pharma). Cells were scraped in 1 ml RIPA buffer, and protein lysates were incubated with 2 μg of anti-FGFR4 (C-16; Santa Cruz) or anti-GFP (Clonetech) as negative control at 4° C. under rotation overnight. We added 50 μl of a 1:1 mix of Protein A on sepharose beads and Protein G on agarose beads that were previously equilibrated in RIPA buffer, followed by incubation at 4° C. under rotation for 2 hours, protein elution in sample buffer, and SDS-PAGE and Western blot analyses.

Molecule	luciferase activity (NFAT)	phosphorylated PLCγ levels (HEK293 cells)	phosphorylation of FRS2γ (FGF2: FRS2γ and ERK1/2) (HEK293 cells)	phospho-PLCγ levels (HEK293 cells; HEK293 overexpressing FGFR4Arg385, 30 minutes)	ERK1/2 phosphorylation (HEK293 cells; HEK293 overexpressing V5-tagged FGFR4)	phosphorylation of PLCγ (HEK293 cells; HEK293 overexpressing ectopic β-klotho)	FGFR isoform binding to PLCγ (co-precipitation) (HEK293 cells; HEK293 transfected with V5-tagged FGFR1-4, 30 minutes)	levels of phospho-ERK and Egr-1 (HEK293 cells; HEK293 transiently expressing FLAG-tagged klotho)	activation of PLCγ (HEK293 cells; HEK293 with ectopic α-klotho)	phosphorylation of FRS2α and ERK1/2 (HEK293 cells; HEK293 with ectopic α-klotho)	FGF2-mediated FRS2α/Ras/MAPK signaling (HEK293 cells; HEK293, presence or absence of α-klotho or β-klotho)
B1	significant elevation	increased	did not induce	further increased	does not increase	induced phosphorylation	only FGFR4 bound PLCγ	increased levels	did not activate	increased	–
B2	did not increase	had no effect	increased	–	–	–	–	–	–	–	unaffected
